Experimental findings from patent US20130005646A1 (Novo Nordisk, published 2013) are described below.

T1: human amylin 3(a) receptor (human calcitonin receptor + RAMP-3) (human, UniProt P30988 25-474; O60896 24-148)
T1 sequence (looked up) 1: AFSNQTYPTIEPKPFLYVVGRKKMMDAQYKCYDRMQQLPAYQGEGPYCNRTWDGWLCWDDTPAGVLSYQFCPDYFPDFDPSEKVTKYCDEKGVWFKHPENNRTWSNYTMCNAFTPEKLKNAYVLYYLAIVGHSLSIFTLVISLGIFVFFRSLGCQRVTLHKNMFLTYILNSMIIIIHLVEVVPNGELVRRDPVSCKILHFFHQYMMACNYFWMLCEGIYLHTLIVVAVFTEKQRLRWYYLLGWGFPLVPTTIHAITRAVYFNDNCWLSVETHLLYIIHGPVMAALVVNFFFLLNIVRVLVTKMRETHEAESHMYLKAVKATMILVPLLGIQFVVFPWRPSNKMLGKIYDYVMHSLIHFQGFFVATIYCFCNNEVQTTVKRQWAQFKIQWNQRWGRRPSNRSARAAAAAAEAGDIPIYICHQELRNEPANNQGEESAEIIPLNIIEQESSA
T1 sequence (looked up) 2: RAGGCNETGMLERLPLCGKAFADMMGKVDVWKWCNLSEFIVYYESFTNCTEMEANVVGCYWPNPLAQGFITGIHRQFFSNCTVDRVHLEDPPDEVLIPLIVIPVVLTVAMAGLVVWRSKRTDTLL

T2: human calcitonin (a) receptor (human, UniProt P30988 25-474)
T2 sequence (looked up): T1 sequence (looked up) 1

B1: N-alpha-[2-(2-{2-[2-(2-{2-[(S)-4-Carboxy-4-(19-carboxyheptadecanoylamino)butyrylamino]ethoxy}ethoxy)acetylamino]ethoxy}ethoxy)acetyl]-[Glu14,His17,Lys21,Pro37]- … (peptide)
peptide: {19‑carboxyheptadecanoyl-γGlu-AEEA-AEEA}-KCNTATCATQRLAEFLHHSSKNFGPILPPTNVGSNTP-NH2
modifications: disulfide 2-7; reading uncertain; also: printed as N-alpha-[2-(2-{2-[2-(2-{2-[(S)-4-Carboxy-4-(19-carboxyheptadecanoylamino)butyrylamino]ethoxy}ethoxy)acetylamino]ethoxy}ethoxy)acetyl]-[Glu14,His17,Lys21,Pro37]-pramlintide
B2: N-alpha-[2-(2-{2-[2-(2-{2-[(S)-4-Carboxy-4-(19-carboxyheptadecanoylamino)butyrylamino]ethoxy}ethoxy)acetylamino]ethoxy}ethoxy)acetyl]-[Glu14,His17,Glu21,Pro37]- … (peptide)
peptide: {19‑carboxyheptadecanoyl-γGlu-AEEA-AEEA}-KCNTATCATQRLAEFLHHSSENFGPILPPTNVGSNTP-NH2
modifications: disulfide 2-7; reading uncertain; also: printed as N-alpha-[2-(2-{2-[2-(2-{2-[(S)-4-Carboxy-4-(19-carboxyheptadecanoylamino)butyrylamino]ethoxy}ethoxy)acetylamino]ethoxy}ethoxy)acetyl]-[Glu14,His17,Glu21,Pro37]-pramlintide
B3: N-alpha-[(S)-4-Carboxy-4-(19-carboxynonadecanoylamino)butyryl]-Glu-Arg-[Glu1,Glu14,Arg17,Gln21,Gln22,Gln31,Gln35,Pro37]-pramlintide (peptide)
peptide: {C20 diacid-γGlu}-ERECNTATCATQRLAEFLRHSSQQFGPILPPTQVGSQTP-NH2
modifications: disulfide 4-9
SMILES: CC[C@H](C)[C@H](NC(=O)[C@@H]1CCCN1C(=O)CNC(=O)[C@H](Cc1ccccc1)NC(=O)[C@H](CCC(N)=O)NC(=O)[C@H](CCC(N)=O)NC(=O)[C@H](CO)NC(=O)[C@H](CO)NC(=O)[C@H](Cc1c[nH]cn1)NC(=O)[C@H](CCCNC(=N)N)NC(=O)[C@H](CC(C)C)NC(=O)[C@H](Cc1ccccc1)NC(=O)[C@H](CCC(=O)O)NC(=O)[C@H](C)NC(=O)[C@H](CC(C)C)NC(=O)[C@H](CCCNC(=N)N)NC(=O)[C@H](CCC(N)=O)NC(=O)[C@@H](NC(=O)[C@H](C)NC(=O)[C@@H]1CSSC[C@H](NC(=O)[C@H](CCC(=O)O)NC(=O)[C@H](CCCNC(=N)N)NC(=O)[C@H](CCC(=O)O)NC(=O)CC[C@H](NC(=O)CCCCCCCCCCCCCCCCCCC(=O)O)C(=O)O)C(=O)N[C@@H](CC(N)=O)C(=O)N[C@@H]([C@@H](C)O)C(=O)N[C@@H](C)C(=O)N[C@@H]([C@@H](C)O)C(=O)N1)[C@@H](C)O)C(=O)N[C@@H](CC(C)C)C(=O)N1CCC[C@H]1C(=O)N1CCC[C@H]1C(=O)N[C@H](C(=O)N[C@@H](CCC(N)=O)C(=O)N[C@H](C(=O)NCC(=O)N[C@@H](CO)C(=O)N[C@@H](CCC(N)=O)C(=O)N[C@H](C(=O)N1CCC[C@H]1C(N)=O)[C@@H](C)O)C(C)C)[C@@H](C)O
B4: N-alpha-[(S)-4-Carboxy-4-(19-carboxynonadecanoylamino)butyryl]-[Glu14,Arg18,Ser21,Ser22,Ser28,Ser29,Asp31,Asp35,Pro37]-pramlintide (peptide)
peptide: {C20 diacid-γGlu}-KCNTATCATQRLAEFLVRSSSSFGPILSSTDVGSDTP-NH2
modifications: disulfide 2-7
SMILES: CC[C@H](C)[C@H](NC(=O)[C@@H]1CCCN1C(=O)CNC(=O)[C@H](Cc1ccccc1)NC(=O)[C@H](CO)NC(=O)[C@H](CO)NC(=O)[C@H](CO)NC(=O)[C@H](CO)NC(=O)[C@H](CCCNC(=N)N)NC(=O)[C@@H](NC(=O)[C@H](CC(C)C)NC(=O)[C@H](Cc1ccccc1)NC(=O)[C@H](CCC(=O)O)NC(=O)[C@H](C)NC(=O)[C@H](CC(C)C)NC(=O)[C@H](CCCNC(=N)N)NC(=O)[C@H](CCC(N)=O)NC(=O)[C@@H](NC(=O)[C@H](C)NC(=O)[C@@H]1CSSC[C@H](NC(=O)[C@H](CCCCN)NC(=O)CC[C@H](NC(=O)CCCCCCCCCCCCCCCCCCC(=O)O)C(=O)O)C(=O)N[C@@H](CC(N)=O)C(=O)N[C@@H]([C@@H](C)O)C(=O)N[C@@H](C)C(=O)N[C@@H]([C@@H](C)O)C(=O)N1)[C@@H](C)O)C(C)C)C(=O)N[C@@H](CC(C)C)C(=O)N[C@@H](CO)C(=O)N[C@@H](CO)C(=O)N[C@H](C(=O)N[C@@H](CC(=O)O)C(=O)N[C@H](C(=O)NCC(=O)N[C@@H](CO)C(=O)N[C@@H](CC(=O)O)C(=O)N[C@H](C(=O)N1CCC[C@H]1C(N)=O)[C@@H](C)O)C(C)C)[C@@H](C)O
B5: N-alpha-[(S)-4-Carboxy-4-(19-carboxynonadecanoylamino)butyryl]-[Glu14,Arg18,Gln21,Ala25,Pro26,Ser28,Ser29,Pro37]-pramlintide (peptide)
peptide: {C20 diacid-γGlu}-KCNTATCATQRLAEFLVRSSQNFGAPLSSTNVGSNTP-NH2
modifications: disulfide 2-7
SMILES: CC(C)C[C@H](NC(=O)[C@H](CCCNC(=N)N)NC(=O)[C@H](CCC(N)=O)NC(=O)[C@@H](NC(=O)[C@H](C)NC(=O)[C@@H]1CSSC[C@H](NC(=O)[C@H](CCCCN)NC(=O)CC[C@H](NC(=O)CCCCCCCCCCCCCCCCCCC(=O)O)C(=O)O)C(=O)N[C@@H](CC(N)=O)C(=O)N[C@@H]([C@@H](C)O)C(=O)N[C@@H](C)C(=O)N[C@@H]([C@@H](C)O)C(=O)N1)[C@@H](C)O)C(=O)N[C@@H](C)C(=O)N[C@@H](CCC(=O)O)C(=O)N[C@@H](Cc1ccccc1)C(=O)N[C@@H](CC(C)C)C(=O)N[C@H](C(=O)N[C@@H](CCCNC(=N)N)C(=O)N[C@@H](CO)C(=O)N[C@@H](CO)C(=O)N[C@@H](CCC(N)=O)C(=O)N[C@@H](CC(N)=O)C(=O)N[C@@H](Cc1ccccc1)C(=O)NCC(=O)N[C@@H](C)C(=O)N1CCC[C@H]1C(=O)N[C@@H](CC(C)C)C(=O)N[C@@H](CO)C(=O)N[C@@H](CO)C(=O)N[C@H](C(=O)N[C@@H](CC(N)=O)C(=O)N[C@H](C(=O)NCC(=O)N[C@@H](CO)C(=O)N[C@@H](CC(N)=O)C(=O)N[C@H](C(=O)N1CCC[C@H]1C(N)=O)[C@@H](C)O)C(C)C)[C@@H](C)O)C(C)C
B6: N-alpha-[(S)-4-Carboxy-4-(19-carboxynonadecanoylamino)butyryl]-Glu-Arg-[Glu1,Glu14,Arg17,Gln21,Gln31,Gln35,Pro37]-pramlintide (peptide)
peptide: {C20 diacid-γGlu}-ERECNTATCATQRLAEFLRHSSQNFGPILPPTQVGSQTP-NH2
modifications: disulfide 4-9
SMILES: CC[C@H](C)[C@H](NC(=O)[C@@H]1CCCN1C(=O)CNC(=O)[C@H](Cc1ccccc1)NC(=O)[C@H](CC(N)=O)NC(=O)[C@H](CCC(N)=O)NC(=O)[C@H](CO)NC(=O)[C@H](CO)NC(=O)[C@H](Cc1c[nH]cn1)NC(=O)[C@H](CCCNC(=N)N)NC(=O)[C@H](CC(C)C)NC(=O)[C@H](Cc1ccccc1)NC(=O)[C@H](CCC(=O)O)NC(=O)[C@H](C)NC(=O)[C@H](CC(C)C)NC(=O)[C@H](CCCNC(=N)N)NC(=O)[C@H](CCC(N)=O)NC(=O)[C@@H](NC(=O)[C@H](C)NC(=O)[C@@H]1CSSC[C@H](NC(=O)[C@H](CCC(=O)O)NC(=O)[C@H](CCCNC(=N)N)NC(=O)[C@H](CCC(=O)O)NC(=O)CC[C@H](NC(=O)CCCCCCCCCCCCCCCCCCC(=O)O)C(=O)O)C(=O)N[C@@H](CC(N)=O)C(=O)N[C@@H]([C@@H](C)O)C(=O)N[C@@H](C)C(=O)N[C@@H]([C@@H](C)O)C(=O)N1)[C@@H](C)O)C(=O)N[C@@H](CC(C)C)C(=O)N1CCC[C@H]1C(=O)N1CCC[C@H]1C(=O)N[C@H](C(=O)N[C@@H](CCC(N)=O)C(=O)N[C@H](C(=O)NCC(=O)N[C@@H](CO)C(=O)N[C@@H](CCC(N)=O)C(=O)N[C@H](C(=O)N1CCC[C@H]1C(N)=O)[C@@H](C)O)C(C)C)[C@@H](C)O

Starred links: 1 amine or outer side, 2 acyl side, 3 side chain; linkers in the order of their positions; H or OH if unused. Positions of bridges follow the written chain, without caps; N, C: chain ends. *: point of attachment. C20 diacid = O=C(O)CCCCCCCCCCCCCCCCCCC(=O)*; 19‑carboxyheptadecanoyl = not defined here; γGlu = O=C(O)[C@H](CCC(=O)[*:2])N[*:1]; AEEA = NCCOCCOCC(=O)O

The target in one assay is T1, human amylin 3(a) receptor (human …). The assay can be described thus: cell-based or functional assay.
For the molecule B1, the “Amylin receptor human EC50” value turned out to be 0.071 nM.

For the molecule B2, the “Amylin receptor human EC50” value worked out at 0.203 nM.

Regarding B3, the “Amylin receptor human EC50” value amounted to 1.71 nM.

Consider B4, for which the “Amylin receptor human EC50” value came out at 0.09 nM.

Consider B5, for which the “Amylin receptor human EC50” value was 0.039 nM.

On to B6, for which the “Amylin receptor human EC50” value came to 1.06 nM.

A further assay deals with T2, human calcitonin (a) receptor. Nature of the assay: cell-based or functional assay.
As to B1, the “CTa receptor human EC50” value turned out to be 0.085 nM.

For B2, the “CTa receptor human EC50” value was 0.113 nM.

In the case of B3, the “CTa receptor human EC50” value stood at 3.57 nM.

Consider B4, for which the “CTa receptor human EC50” value turned out to be 0.076 nM.

As to B5, the “CTa receptor human EC50” value amounted to 0.034 nM.

For B6, the “CTa receptor human EC50” value is 3.71 nM.
